Assay results as given in publication PMC2120661.

Target: VLA-5 integrin (alpha5 beta1), affinity-isolated from mouse thymocyte lysate (mouse (endogenous in thymocytes)) (UniProt P09055)
Test: ELISA

B1: L1-RGD peptide (peptide)
peptide: CWRGDGRDLQERGDSDK
Question: B1 was tested. Which percent inhibition of the binding of L1 to VLA-5 at 500 ug/ml peptide did it give?
Answer: 80%
